From article PMC10720262 (Cell Reports, 2023)

B1: CL-444906 (antibody, V domains shown)
VH: QVQLVESGGGVVQPGRSLRLSCTASGFTFSTYGMHWVRQAPGKGLEWVAIIWYDGSNKFYADSVKGRFTISRDNSKDTLYLQMNSLRAEDTAIYYCARAWDKVDDKYGMDVWGQGTTVTVSS
VL: not shown
B2: CL-449869 (antibody, V domains shown)
VH: QVQLVESGGGAVQPGRSLRLSCAASGFTFSYNGMHWVRQAPGKGLEWVAIIWYDGSNKFYADSVKGRFTISRDNSKDTLYLEMNSLRAEDTAIYYCARAWNYDDKKYSMDVWGQGTTVTVSS
VL: DIQMTQSPSTLSASVGDRVTITCRASQSISSWLAWYQQKPGKAPKLLIYKASSLESGVPSRFSGSGSGTEFTLTISSLQPDDFATYYCQQYNYFWTFGQGTKVEIR
B3: CL-458015 (antibody, V domains shown)
VH: QVHLVESGGGVVQPGRSLRLSCAASGFTFSNYGMHWVRQAPGKGLDWVAIIWYDGSNKFYADSVQGRFTISRDNSKNTLYLQMNSLRAEDTAVYYCAKVQDLLGVPSTLGDHYTTDVWGQGTSVTVSS
VL: DIQMTQSPSTLSASVGDRITITCRASQSINDWLAWYQQKAGKAPKLLIYKASSLESGVPSRFSGSGSGTDFTLTISSLQTDDFAIYYCQQYNHYWTFGQGTKVEIK
B4: CL-460369 (antibody, V domains shown)
VH: QVQLVESGGGVVQPGRSLRLSCAASGFTFSNYGMHWVRQAPGKGLEWVGIIWYDGSNKYYIDSVKGRFTISRDNSRNTLYLQINSLRAEDTAVYYCARDGGWNDDYYYVMDVWGQGTTVTVSS
VL: DIVMTQSPDSLAVSLGEGATINCKSSQSVLYSSNNKNYLAWYQQKPGQPPKVLIYWASIRESGVPDRFSGSGSGTDFTLTISSLQAEDVAVYYCQQYYSMCSFGQGTKLEIK
B5: CL-450034 (antibody, V domains shown)
VH: QVQLVESGGGAVQAGTSLRLSCAASGFTFSYNGMHWVRQGPGKGLEWVAIIWYDGGNKFYADSVKGRFTISRDNSKNMLYLQMNRLRAEDTAVYYCARAWNYADSKYSMDVWGQGTTVTVSS
VL: not shown
B6: CL-453181 (antibody, V domains shown)
VH: QVQLVESGGGVVQPGRSLRLSCAASGFTFSYYGMHWVRQAPGKGLEWVSIIWYDGSNKFYADSVKGRFTISRDNSKDTLYLEMNSLRAEDTAVYYCARVEFYNGSGRDFYYGLDVWGQGTTVTVSS
VL: EIVMTQSPATLSVSPGEGATLSCRASQSVSSNLAWYQQKPGQAPRLLISGASTRATGVPARFSGSGSGTEFALTISSLQSEDFAVYYCQQYSKLWTFGQGTKVEIK
B7: CL-449724 (antibody, V domains shown)
VH: QVHLVASGGGVVQPGRSLRLSCEVTGFTFSSYGMHWVRQDPGRGLEWVAIIWYDGSNKFYADSVKGRFTISRDNSKNTLYLQMNSLRAEDTAVYYCARSYGILTGYQTKYGMDVWGQGTTVTVSS
VL: not shown
B8: CL-447737 (antibody, V domains shown)
VH: QVQLVESGGGVVQPGRSLRLSCAASGFTFSSYGMHWVRQAPGKGLEWVAIIWFDGSNIFYEDSVKGRFTISRDNSKNTLYLQMNSLRAEDTAVYYCAKVWNYDSDYYSMDVWGQGTTVTVSS
VL: not shown
B9: CL-447376 (antibody, V domains shown)
VH: QVQLVESGGGVVQPGRSLRLSCAASGFNFNNYGMHWVRQAPVMGLEWVAIIWYDGSNKFYADSVKGRFTISRDNSQNTLFLQMNSLRAEDTGIYYCARSGGEMGNFDYWGQGTLVTVSS
VL: DIVMTQSPLSLPVTLGQPASISCRSSQSLVYSNGDTYLDWFQLRPGQSPRRLIYKVSHRDSGVPDRFSGSGSGTEFTLRISRVEAEDVGIYYCMQGTHYWTFGQGTEVEIK
B10: CL-460506 (antibody, V domains shown)
VH: QVQLVESGGGVVQPGRSLRLSCAASGFTFSNYGMHWVRQAPGKGLEWMAIIWYDGSNKYYADSVKGRFTISRDNSMNTLYLQMNSLRPEDTALYYCARAFYYGSGTLDYWGQGTLVTVSS
VL: EIVLTQSPATLSVSPGERATLSCRASQSVSSHLAWYQQKFGQAPRLLIYGASNRATGIPARFSGSGSGTEFTLTISILQSEDFAVYYCQQYNNWFTFGPGTKIDIK
B11: CL-447703 (antibody, V domains shown)
VH: QVQLVESGGGVVQPGRSLRLSCEASGFTFSDHGMHWVRQGPGKGLEWVSIIWYDGSNKYYADSVKGRFTISRDNSKNTLYLEMNRLRAEDTALYYCARVWNHDDYKYSMDVWGQGTTVTVSS
VL: not shown
B12: CL-445457 (antibody, V domains shown)
VH: QVQLVESGGAVVQPGTSLRLSCAASGFTFSNYGIHWVRQAPGKGLQWVALIWYNGNNKFYADSVQGRFTISRDNSKNILYLQINSLSAEDTAVYYCARAFYSDSGNYMDYWGQGALVTVSS
VL: DIQMTQSPSSVSASVGDRVTITCRARQDISSRLAWYQQKPGKAPKILIYGASSLQSGVPSRFSASGSGTDFTLTISSLQPEDVASYFCQQANSFPWTFGQGTKVEIK
B13: CL-445635 (antibody, V domains shown)
VH: QVQLVESGGAVVQPGTSLRLSCAASGFTFSNYGMHWVRQAPGKGLQWVALIWYNGNNKFYAESVEGRFIISRDNSKNILFLQMNSLSAEDTAVYYCARAFYYDSGNYLDYWGPGSLVTVSS
VL: DIQMTQSPSSVSASVGDRVTITCRARQDISSRLAWYQQKPGKAPKILIYGASSLQSGVPSRFSASGSGTDFTLTISSLQPEDFATYYCQQANSFPWTFGQGTKVEIK
B14: CL-445827 (antibody, V domains shown)
VH: QVQLVASGGGVVQPGRSLRLSCVASGFTFSFFGMHWVRQTPGRGLEWVAIIWYDGGHKFYADSVKGRFTISRDNSKDTLYLQMNSLRAEDTAVYYCARAEDNMARGNIDYSKYGMDVWGQGTTVTVSS
VL: DIQMTQSPSTLSVSIGDRVTITCRASQSISTWLAWYQQKPGKAPKLLIYKASNLESGVPSRFSGSGSGTDFTLTISGLQPDDFATYYCQQYFSYWTFGQGTKVEIK
B15: CL-447609 (antibody, V domains shown)
VH: QVQLVESGGGVVQPGRSLRLSCAASGFTFNNYGMHWVRQAPGKGLDWVAIIWFDGSNKYYADSVKGRFTISRDNSKNTLYLQMNSLRAEDTAVYYCARVGDHSKYRNRGDAFDIWGQGTMVTVSS
VL: DIQMTQSPSTLSASVGDRVTITCRASQSISSWLAWYQQKPGKAPKLLIYKASSLESGVPSRFSGSGSGTEFTLTISSLQPDDSATYFCQQYDSYWTFGQGTKVEIK
B16: CL-459404 (antibody, V domains shown)
VH: QVQLVASGGGVVQPGRSLRLSCAASGFTFSNYGMHWVRQAPGKGLEWVAIIWYDGSKKYYSDSVKGRFTISRDNSKNTLNLQMNSLRAEDTAVYYCARAYGSGSYSDDYYGMDVWGQGTTVTVSS
VL: DIQMTQSPSTLSASVGDRVTITCRASQSISPWLAWFQQKPGKAPKLLIYKASNLESGVPSRFSGSGSGTEFTLTISSLQPDDFATYYCQQYYTYWTFGQGTKVEIK
B17: CL-447563 (antibody, V domains shown)
VH: QVQLVASGGGVVQPGRSLRLSCAASGFTFSNYGMHWVRQAPGKGLEWVAIIWYDGSKKYYSDSVKGRFTISRDNSKNTLYLQMNSLRAEDTAVYYCARAYGSGSYSDDYYGMDVWGQGTTVTVSS
VL: DIQMTQSPSTLSASVGDRVTITCRASQSISTWLAWYQQKPGKAPKLLIYKASNLESGVPSRFSGSGSGTEFTLTISSLQPDDFATYYCQQYYSYWTFGQGTKVEIK
B18: CL-449007 (antibody, V domains shown)
VH: QVQVVESGGGVVQPGRSLRLSCAASGFTFSNYGMHWVRQAPGKGLEWVAIIWYDGSHKFYANSVKGRFTISRDNSKNTLFLQMNSLRAEDTAVYYCARVGNGNSDWTDAFDIWGQGTMVTVSS
VL: DIQMTQSPSTLSASVGDRVTITCRASQSINSWLAWYQQKPGKAPKLLIYKASSLESGVPSRFSGSGSGTEFTLTISSLQPDDFATYYCQQYNTYWTFGQGTKVEIK
B19: CL-459075 (antibody, V domains shown)
VH: QVQLVASGGGVVQPGRSLRLSCAASGFTFSNYGMHWVRQAPGKGLEWVSIIWYDGSKKYYSDSVKGRFTISRDNSKNTLYLQMNSLRAEDTAVYYCARAYGSGSYSDDYYGMDVWGQGTTVTVSS
VL: DIQMTQSPSTLSASVGDRVTITCRASQSISTWLAWCQQKPGKAPKLLIYKASNLESGVPSRFSGSGSGTEFTLTISSLQPDDFATYYCQQYYSYWTFGQGTKVEIK
B20: CL-460406 (antibody, V domains shown)
VH: QIQLVESGGGVVQPGRSLRLSCAASGFTFSNSGMHWIRQAPGKGLEWVTIIWYDGSNKYYADSVKGRFTISRDNSKNTLYLQMNSLRAEDTAIYYCARAYSSSSDDYYGMDVWGQGTTVTVSS
VL: DIQMTQSPSTLSASVGDRVTITCRASQSISSWLAWYQQKPGKAPKLLIYKASSLESGVPSRFSGSGSGTDFTLTISSLQPDDFATYYCQQFYNYWTFGQGTKVEIT
B21: CL-449849 (antibody, V domains shown)
VH: QVQLVESGGGAVQAGTSLRLSCAASGFTFSYNGMHWVRQGPGKGLEWVAIIWYDGGNKFYADSVKGRFTISRDNSKNMLYLQMNRLRAEDTAVYYCARAWNFADNKYSMDVWGQGTTVTVSS
VL: DIQMTQSPSTLSASVGDRVTITCRASQSISSWLAWYQQKPGKAPQLLIYKASSLESGVPSRFSGSGSGTEFTLTISSLQPDDFATYYCQQYYIYWTFGQGTKVDIK
B22: CL-445901 (antibody, V domains shown)
VH: QVQLVESGGGVVQPGRSLRLSCAASGFTFSNYGIHWVRQAPGKGLEWVALIWFNGNNKFYADSVEGRFTVSRDNSKNTLYLQLNSLRAEDTAVYYCARAYYFASGNYMDYWGQGTLVTVSS
VL: DIQMTQSPSSVSASMGDRVTITCRASQDISSSLAWYQQKPGKAPILLISFASSLHSGVPSRFSGSGSGTDFTLTISSLQPEDFATYSCQQANSFPWTFGQGTRVEVK
B23: CL-460619 (antibody, V domains shown)
VH: QVQLVESGGGVVQPGRSLRLSCAASGFTFDYYGMHWVRQAPGKGLEGVAIIWYDGSNKFYADSVKGRFTISRDNSKNTLYLQMTSLRVEDTAVYYCARDGRIGDPGPYFDYWGQGTLVTVSS
VL: EIVMTQSPATLSVSPGERPTLSCRASQSVSSKLAWYQQKPDQAPRLLIYGASTRATGIPPRFSGSGSGTEFTLTIDSLQSEDFAVYYCQQYHKWWTFGQGTKVEIK
B24: CL-449759 (antibody, V domains shown)
VH: QVHLVESGGGVVQPGESQRLSCAASGFTFSNYGMHWVRQAPGKGLEWVALIWYDGSNKFYADSVKGRFTISRDNSKNTLYLHMNSLRAEDTAMYYCAKVPNWNDDKYTMDVWGQGTTVTVTS
VL: not shown

Target: recombinant full-length PfCSP (Plasmodium falciparum circumsporozoite protein, strain NF54) (Plasmodium falciparum NF54, UniProt P19597)
Sequence (P19597 20-375): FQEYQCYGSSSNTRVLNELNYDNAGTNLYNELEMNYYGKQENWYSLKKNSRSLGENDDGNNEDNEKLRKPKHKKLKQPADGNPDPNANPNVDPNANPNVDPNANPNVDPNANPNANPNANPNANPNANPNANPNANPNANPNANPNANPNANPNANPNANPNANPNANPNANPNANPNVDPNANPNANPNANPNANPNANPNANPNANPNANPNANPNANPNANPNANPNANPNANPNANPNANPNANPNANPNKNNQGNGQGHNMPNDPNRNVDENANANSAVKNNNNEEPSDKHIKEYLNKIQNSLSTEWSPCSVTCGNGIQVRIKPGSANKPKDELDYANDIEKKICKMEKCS

Row | Binder | binding result
1 | B1 | binds
2 | B2 | binds
3 | B3 | binds
4 | B4 | binds
5 | B5 | binds
6 | B6 | binds
7 | B7 | binds
8 | B8 | binds
9 | B9 | binds
10 | B10 | binds
11 | B11 | binds
12 | B12 | binds
13 | B13 | binds
14 | B14 | binds
15 | B15 | binds
16 | B16 | binds
17 | B17 | binds
18 | B18 | binds
19 | B19 | binds
20 | B20 | binds
21 | B21 | binds
22 | B22 | binds
23 | B23 | binds
24 | B24 | binds
